One assay deals with HLA-B*15:09. Briefly: IEDB peptide-MHC binding, purified MHC/competitive/fluorescence; filed as Kd, often an IC50 or EC50 that approximates it; ≥ and ≤ were set here for values at or beyond the usual limits of such assays.
The next assay addresses HLA-B*35:01. Described as above.
Assay [1] concerns the target HLA-A*68:02. Described as above. As to conditions: source organism: Coxiella burnetii RSA 331.
Assay [2] addresses HLA-B*15:17. The assay is described as above. To be noted: source organism: Coxiella burnetii RSA 331.
Assay [3] deals with HLA-A*02:01. Briefly: IEDB peptide-MHC binding, purified MHC/direct/fluorescence; filed as Kd, often an IC50 or EC50 that approximates it; ≥ and ≤ were set here for values at or beyond the usual limits of such assays.
Assay [4] addresses HLA-A*69:01. The assay is described as above.
A further assay concerns the target HLA-B*40:01. Described as above.
The target of assay [5] is HLA-B*57:01. Described as above.
The target of another assay is HLA-B*58:01. The description is as above.
A further assay deals with HLA-A*01:01. The description is as above.
The target in the next assay is HLA-B*48:01. The assay is described as above.
A further assay deals with HLA-A*31:01. Described as above.
A further assay deals with HLA-A*03:01. The description is as above.
The target in another assay is HLA-B*44:02. The assay is described as above.
Another assay deals with HLA-A*11:01. Described as above.
Assay [6] has as its target HLA-B*39:01. The description is as above. As to conditions: source organism: Coxiella burnetii Q321.
Another assay addresses HLA-B*07:02. The description is as above.
The target of a further assay is HLA-B*27:05. The assay is described as above.
The target in assay [7] is HLA-B*08:01. Described as above. As to conditions: source organism: Coxiella burnetii Q321.
For a further assay, the target named is HLA-B*15:01. Described as above.
Assay [8] has as its target HLA-A*02:01. Briefly: IEDB peptide-MHC binding, purified MHC/competitive/fluorescence; filed as Kd, often an IC50 or EC50 that approximates it; ≥ and ≤ were set here for values at or beyond the usual limits of such assays.
The target in the next assay is HLA-B*51:01. The description is as above.
Assay [9] concerns the target HLA-A*69:01. The description is as above.
Assay [10] deals with HLA-B*57:01. Described as above. As to conditions: source organism: Orthohantavirus andesense.
For a further assay, the target named is HLA-B*46:01. The description is as above. As to conditions: source organism: Orthohantavirus andesense.
The target in assay [11] is HLA-B*18:01. Described as above. As to conditions: source organism: Orthohantavirus andesense.
Assay [12] deals with HLA-B*39:01. Described as above.
The target of another assay is HLA-B*27:03. The assay is described as above.
For a further assay, the target named is HLA-A*23:01. Briefly: IEDB peptide-MHC binding, purified MHC/direct/fluorescence; filed as Kd, often an IC50 or EC50 that approximates it; ≥ and ≤ were set here for values at or beyond the usual limits of such assays.
For a further assay, the target named is HLA-A*02:11. Described as above.
Another assay concerns the target HLA-A*02:12. The assay is described as above.
The next assay addresses HLA-A*29:02. Described as above. To be noted: source organism: Orthohantavirus andesense.
A further assay addresses HLA-A*02:19. Described as above.
In another assay the target is HLA-A*02:16. Described as above.
Assay [13] has as its target HLA-A*68:02. The description is as above.
The target of another assay is HLA-A*24:03. Described as above.
The next assay has as its target HLA-A*26:01. Described as above.
A further assay addresses HLA-A*02:03. Described as above.
Assay [14] addresses HLA-B*08:01. Briefly: IEDB peptide-MHC binding, purified MHC/competitive/fluorescence; filed as Kd, often an IC50 or EC50 that approximates it; ≥ and ≤ were set here for values at or beyond the usual limits of such assays. To be noted: source organism: Brucella canis ATCC 23365.
Assay [15] deals with HLA-B*18:01. Briefly: IEDB peptide-MHC binding, purified MHC/direct/fluorescence; filed as Kd, often an IC50 or EC50 that approximates it; ≥ and ≤ were set here for values at or beyond the usual limits of such assays. As to conditions: source organism: Brucella abortus 2308.
Assay [16] addresses HLA-B*15:17. Described as above. To be noted: source organism: Brucella abortus 2308.
Where [17] appears, read: source organism: Coxiella burnetii RSA 331.
[18] abbreviates: source organism: Coxiella burnetii.
[19] abbreviates: source organism: Orthohantavirus andesense.
[20] abbreviates: source organism: Zaire ebolavirus.
[21] abbreviates: source organism: Ebola virus - Gabon (1994-1997).
Setting [22] is: source organism: Brucella canis ATCC 23365.
[23] abbreviates: source organism: Brucella abortus 2308.

As usually defined, the Kd is the constant that tells how readily two partners part at equilibrium. High values mean a looser complex, low ones a tighter complex. Turning to HEGDIVPLF, the Kd in the assay with HLA-B*15:09 (setting [17]) is no less than 20 µM; with HLA-B*35:01 (setting [17]), 0.183 µM; in the assay with HLA-A*68:02 [1], no less than 20 µM; with HLA-B*15:17 [2], 0.644 µM; with HLA-A*02:01 [3] (setting [18]), no less than 20 µM; in the assay with HLA-A*69:01 [4] (setting [18]) it was no less than 20 µM. In addition, the Kd is 0.312 µM with HLA-B*40:01 (setting [18]); no less than 20 µM with HLA-B*57:01 [5] (setting [18]); no less than 20 µM with HLA-B*58:01 (setting [18]); no less than 20 µM in the assay with HLA-A*01:01 (setting [18]); no less than 20 µM with HLA-B*48:01 (setting [18]); no less than 20 µM in the assay with HLA-A*31:01 (setting [18]). In addition, the Kd with HLA-A*03:01 (setting [18]) is no less than 20 µM; in the assay with HLA-B*44:02 (setting [18]), 6 µM; with HLA-A*11:01 (setting [18]), no less than 20 µM; in the assay with HLA-B*39:01 [6], no less than 20 µM; with HLA-B*07:02 (setting [18]), no less than 20 µM; with HLA-B*27:05 (setting [18]) it was no less than 20 µM. For the same sequence, the dissociation constant Kd in the assay with HLA-B*08:01 [7] is no less than 20 µM; with HLA-B*15:01 (setting [18]) it was 15 µM.

As to DAVEDFLAF, the Kd was no less than 20 µM with HLA-A*02:01 [8] (setting [19]); no less than 20 µM in the assay with HLA-B*51:01 (setting [19]); no less than 20 µM in the assay with HLA-A*69:01 [9] (setting [19]); no less than 20 µM in the assay with HLA-B*57:01 [10]; no less than 20 µM with HLA-B*46:01; no more than 0.0001 µM with HLA-B*35:01 (setting [19]). For the same sequence, the Kd with HLA-B*18:01 [11], with HLA-B*39:01 [12] (setting [19]), in the assay with HLA-B*27:03 (setting [19]), with HLA-A*23:01 (setting [19]), with HLA-A*02:11 (setting [19]) and with HLA-A*02:12 (setting [19]) was no less than 20 µM throughout. For the same sequence, the Kd with HLA-A*29:02, with HLA-A*02:19 (setting [19]), with HLA-A*02:16 (setting [19]), with HLA-A*03:01 (setting [19]), with HLA-A*68:02 [13] (setting [19]) and with HLA-A*24:03 (setting [19]) was no less than 20 µM each time. In addition, the Kd was 0.0126 µM in the assay with HLA-A*26:01 (setting [19]) and no less than 20 µM with HLA-A*02:03 (setting [19]).

As to TAAIMLASY, the Kd in the assay with HLA-A*02:01 [8] (setting [20]) is no less than 20 µM; with HLA-B*51:01 (setting [20]) it was no less than 20 µM; with HLA-A*69:01 [9] (setting [20]), no less than 20 µM; in the assay with HLA-B*35:01 (setting [20]), 0.0002 µM; with HLA-B*39:01 [12] (setting [20]), no less than 20 µM; with HLA-B*27:03 (setting [20]), no less than 20 µM. Moreover, the Kd in the assay with HLA-A*23:01 (setting [20]), in the assay with HLA-A*02:11 (setting [20]), with HLA-A*02:12 (setting [20]), with HLA-A*01:01 (setting [21]), in the assay with HLA-A*02:19 (setting [20]) and with HLA-A*02:16 (setting [20]) was no less than 20 µM throughout. In addition, the Kd is no less than 20 µM with HLA-A*03:01 (setting [20]); no less than 20 µM with HLA-A*68:02 [13] (setting [20]); no less than 20 µM with HLA-A*24:03 (setting [20]); 1.29 µM in the assay with HLA-A*26:01 (setting [21]); no less than 20 µM in the assay with HLA-A*02:03 (setting [20]).

Regarding IEVKFHPIL, the Kd with HLA-B*15:09 (setting [22]) is 0.0868 µM; with HLA-B*39:01 [12] (setting [22]) it was 1.06 µM; in the assay with HLA-B*08:01 [14], 0.811 µM; with HLA-A*02:01 [3] (setting [23]), no less than 20 µM; in the assay with HLA-A*69:01 [4] (setting [23]), no less than 20 µM; with HLA-B*40:01 (setting [23]) it was 0.013 µM. Moreover, the Kd in the assay with HLA-B*57:01 [5] (setting [23]) was no less than 20 µM; with HLA-B*58:01 (setting [23]) it was no less than 20 µM; with HLA-A*01:01 (setting [23]), no less than 20 µM; with HLA-B*48:01 (setting [23]), 0.534 µM; with HLA-A*31:01 (setting [23]) it was no less than 20 µM; with HLA-A*03:01 (setting [23]), no less than 20 µM. Besides, the Kd with HLA-A*68:02 [13] (setting [23]) is no less than 20 µM; with HLA-B*18:01 [15], 0.006 µM; with HLA-A*26:01 (source organism: Brucella suis 1330) it was no less than 20 µM; with HLA-B*44:02 (setting [23]), no less than 20 µM; with HLA-A*11:01 (setting [23]), no less than 20 µM; with HLA-B*15:17 [16], no less than 20 µM. The Kd with HLA-B*07:02 (setting [23]), with HLA-B*27:05 (setting [23]) and with HLA-B*15:01 (setting [23]) was no less than 20 µM throughout.

These data come from the Immune Epitope Database (IEDB).
